Results on three substances are retold here after PMC7017353, “Delineating the Molecular Basis of the Calmodulin–bMunc13-2 Interaction by Cross-Linking/Mass Spectrometry—Evidence for a Novel CaM Binding Motif in bMunc13-2” (Cells, 2020).

Assay [1] concerns the target Photo-Met labeled CaM (UniProt P0DP23). Put plainly: cross-linking; photo-cross-linking of photo-Met-labeled CaM (10 µM) with 10 µM segment-A, -B or -C; 20 mM HEPES, 250 mM NaCl, 0.5 mM TCEP, 7.5% glycerol, pH 7.2, 25 °C; free Ca2+ 75 nM to 1 mM (EGTA system); UV-A 360 nm; SDS-PAGE and LC-MS/MS.
Assay [2] addresses biotinylated photo-Met-labeled CaM (UniProt P0DP23). Description: SPR; biotinylated photo-Met-CaM immobilised on streptavidin on a PEG-biotin chip; segment-C and variants injected at 0.1–1 µM in 20 mM HEPES, 230 mM NaCl, 0.5 mM TCEP, pH 7.2; 30 µL/min. For orientation: SPR reads the build-up and loss of mass on a sensor chip optically.
The target of assay [3] is Photo-Met labeled CaM (UniProt P0DP23). Put plainly: cross-linking; photo-cross-linking of photo-Met-labeled CaM with segment-B, SDS-PAGE analysis (data not shown).
Assay [4] deals with CaM (source not told for this experiment) (UniProt P62157). Put plainly: native MS; 10 µM CaM and segment-A in 300 mM ammonium acetate pH 7.0; residual Ca2+ around 5 µM.
Assay [5] has the same target. Put plainly: native gel or EMSA; native gel electrophoresis of the CaM/segment-A complex (Figure S5).
Assay [6] has as its target CaM (bovine brain) (bovine) (UniProt P62157). Description: cross-linking; chemical cross-linking (BS3, DSBU 1 mM; s-GMBS in two steps) of CaM (bovine brain, 10 µM) with 10 µM segment-A; 20 mM HEPES, 230 mM NaCl, 0.5 mM TCEP, 7.5% glycerol, pH 7.2, 25 °C; 750 nM and 1 mM Ca2+; SDS-PAGE and LC-MS/MS.

In the assay with Photo-Met labeled CaM [1], “bMunc13-2 segment-C (aa 703–742) (peptide)” yielded a stoichiometry N (segment-C per CaM) of 1. In assay [2], this substance displayed a Kd of 159 nM.
“bMunc13-2 segment-B (aa 367–903) (from UniProt Q62769-2 367-903) (domain or fragment)” showed a stoichiometry N (segment-B per CaM) in the assay with Photo-Met labeled CaM [3] of 1.
As to “bMunc13-2 segment-A (aa 367–780) (from UniProt Q62769-2 367-780) (domain or fragment)”, the stoichiometry N (segment-A per CaM) (in the assay with Photo-Met labeled CaM [1]; in assay [4]; in assay [5]; in assay [6]) was 1 throughout.

As usually defined, the Kd is the constant that tells how readily two partners part at equilibrium. The low end stands for tighter binding, the high end for weaker binding.
